*1 amine or outer side, *2 acyl side, *3 side chain or, on linkers, in order; H or OH if unused. Where no end group is shown, it is not given here. Side-chain parts run from the residue outwards. [ ]: non-standard residue; d: D form. The star is where a group is joined. C20 diacid = O=C(O)CCCCCCCCCCCCCCCCCCC(=O)*; C18 diacid = O=C(O)CCCCCCCCCCCCCCCCC(=O)*; γGlu = O=C(O)[C@H](CCC(=O)[*:2])N[*:1]; Trx = NC[C@H]1CC[C@H](C(=O)O)CC1; Nle = CCCC[C@H](N)C(=O)O; AEEA = NCCOCCOCC(=O)O; Aib = CC(C)(N)C(=O)O
T1: human GIP receptor (human, UniProt P48546 22-466)
T1 sequence (looked up): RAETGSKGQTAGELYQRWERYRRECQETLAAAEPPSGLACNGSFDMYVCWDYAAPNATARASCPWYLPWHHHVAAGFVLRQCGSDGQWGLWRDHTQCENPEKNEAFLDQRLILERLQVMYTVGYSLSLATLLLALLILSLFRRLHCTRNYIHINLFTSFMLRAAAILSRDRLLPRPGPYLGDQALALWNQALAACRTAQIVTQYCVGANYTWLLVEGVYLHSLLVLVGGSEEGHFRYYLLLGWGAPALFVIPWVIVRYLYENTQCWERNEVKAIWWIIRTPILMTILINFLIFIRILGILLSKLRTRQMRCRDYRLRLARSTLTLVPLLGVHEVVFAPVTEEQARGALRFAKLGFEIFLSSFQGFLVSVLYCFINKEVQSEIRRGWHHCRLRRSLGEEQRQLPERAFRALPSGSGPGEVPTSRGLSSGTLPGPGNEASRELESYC


Molecular target: T1, human GIP receptor
Assay: cell-based or functional assay

EC50, hGIP-R CRE Luc, 0.2% HSA [nM] | Binder
0.0629 | Y[Aib]EGTFISDYSIA[Nle]DKIRQEDFVK([γGlu-γGlu-γGlu-C18 diacid])WLLAQKG
0.0431 | Ac-[dY]AEGTFISDYSIA[Nle]DKIRQQDFVK([AEEA-AEEA-γGlu-γGlu-γGlu-C18 diacid])WLLAQKG
0.18 | Ac-[dY]AEGTFISDYSIA[Nle]DKIRQQDFVK([γGlu-γGlu-γGlu-Trx-C20 diacid])WLLAQKG
0.025 | Ac-[dY]AEGTFISDYSIA[Nle]DKIRQEDFVK([AEEA-AEEA-γGlu-C18 diacid])WLLAQKG
0.0725 | Y[Aib]EGTFISDYSIA[Nle]DAIRQQDFVK([γGlu-γGlu-γGlu-C18 diacid])WLLAQKG
0.546 | Ac-YAEGTFISDYSIA[Nle]DKIRQQDFVK([γGlu-γGlu-γGlu-C18 diacid])WLLAQKG
0.0489 | Ac-[dY]AEGTFISDYSIA[Nle]DKIRQQDFVK([γGlu-γGlu-γGlu-C18 diacid])WLLAQKG
0.158 | Y[Aib]EGTFISDYSIA[Nle]DKIHQEDFVK([γGlu-γGlu-γGlu-γGlu-C18 diacid])WLLAQKG
0.0712 | Y[Aib]EGTFISDYSIA[Nle]DKIRQ[Aib]DFVK([γGlu-γGlu-γGlu-Trx-C20 diacid])WLLAQKG
0.0915 | Ac-[dY]AEGTFISDYSIADDKIRQEDFVK([AEEA-AEEA-γGlu-C18 diacid])WLLAQKG
0.81 | Y[Aib]EGTFISDYSIA[Nle]DKIHQEDFVK([γGlu-γGlu-γGlu-γGlu-Trx-C20 diacid])WLLAQKG
0.0447 | Y[Aib]EGTFISDYSIA[Nle]DKIRQQDFVK([AEEA-AEEA-γGlu-Trx-C20 diacid])WLLAQKG
0.0094 | Y[Aib]EGTFISDYSIA[Nle]DKIRQ[Aib]DFVK([γGlu-γGlu-γGlu-C18 diacid])WLLAQKG
0.0721 | Y[Aib]EGTFISDYSIA[Nle]DKIRQQDFVK([γGlu-γGlu-γGlu-Trx-C20 diacid])WLLAQKG
0.266 | Y[Aib]EGTFISDYSIA[Nle]DAIRQQDFVK([γGlu-γGlu-γGlu-Trx-C20 diacid])WLLAQKG
0.252 | Y[Aib]EGTFISDYSIA[Nle]DKIRQEDFVK([γGlu-γGlu-γGlu-Trx-C20 diacid])WLLAQKG
0.0304 | Ac-[dY]AEGTFISDYSIA[Nle]DKIRQQDFVK([AEEA-AEEA-γGlu-C18 diacid])WLLAQKG
